Assays:
SPS-1 = SPS-1 (Sediminispirochaeta smaragdinae, UniProt E1R245); details: read-out: SPS-1 / Km; 50 mM HEPES, pH 7.5, 150 mM NaCl, 10 μM ZnCl2, 37 °C
[1] = system: CC(=O)OCC1=C(C(=O)O)N2C(=O)[C@@H](NC(=O)Cc3cccs3)[C@H]2SC1; test: purified protein; details: 50 mM HEPES, pH 7.5, 150 mM NaCl, 10 μM ZnCl2, 37 °C
[2] = system: C[C@@H](O)[C@H]1C(=O)N2C(C(=O)O)=C(SCCN=CN)C[C@H]12; test: purified protein; details: 50 mM HEPES, pH 7.5, 150 mM NaCl, 10 μM ZnCl2, 37 °C
[3] = system: C[C@@H](O)[C@H]1C(=O)N2C(C(=O)O)=C(S[C@@H]3CN[C@H](C(=O)N(C)C)C3)[C@H](C)[C@H]12; test: purified protein; details: 50 mM HEPES, pH 7.5, 150 mM NaCl, 10 μM ZnCl2, 37 °C

SPS-1, sequence (E1R245 32-276 limits assumed): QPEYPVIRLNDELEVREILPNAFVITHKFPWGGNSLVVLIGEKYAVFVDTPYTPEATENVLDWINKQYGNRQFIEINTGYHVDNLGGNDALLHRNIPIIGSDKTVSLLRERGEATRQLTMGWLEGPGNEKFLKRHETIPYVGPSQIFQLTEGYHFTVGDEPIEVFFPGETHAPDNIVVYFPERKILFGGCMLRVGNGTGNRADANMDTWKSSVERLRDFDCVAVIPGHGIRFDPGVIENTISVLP

Row | Substance | Km (SPS-1) [µM] | Km [1] [µM] | kcat [1] [s⁻¹] | kcat/Km [1] [M⁻¹ s⁻¹] | Km [2] [µM] | kcat [2] [s⁻¹] | kcat/Km [2] [M⁻¹ s⁻¹] | Km [3] [µM] | kcat [3] [s⁻¹] | kcat/Km [3] [M⁻¹ s⁻¹]
1 | chromacef | 120 ± 9 |  |  |  |  |  |  |  |  | 
2 | SPS-1 (Sediminispirochaeta smaragdinae DSM 11293) |  | 110 ± 20 | 3.1 ± 0.1 | 27000 | 290 ± 50 | 470 ± 60 | 1.63e+06 | 170 ± 30 | 520 ± 50 | 3e+06

From paper PMC6314204 (Biochemistry, 2018)
